Test system: MS2 coat protein
Experiment: apparent KD of MS2 coat protein; higher = weaker reporter binding
Settings: Eterna round: R107
Procedure, shortened: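 Normalised binding curves from single clusters were fitted, and the median fit for each design is given as apparent KD. The clusters held designed RNA switches transcribed on-chip from Illumina sequencing clusters. These were titrated with SNAP-549-labelled MS2 coat protein (twofold steps from 0.7 or 1.5 nM to 3 µM, 0.8–1.5 h to 10–20 min per step) in 100 mM Tris-HCl pH 7.5, 80 mM KCl, 4 mM MgCl2, without or with constant ligand.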

[1] = input ligand: theophylline 20 uM
[2] = input ligand: tryptophan 2.4 mM
[3] = input ligand: theophylline 2 mM

Sequence	apparent KD of MS2 coat protein (input ligand: arginine 13.2 mM) [nM]	apparent KD of MS2 coat protein [1] [nM]	apparent KD of MS2 coat protein [2] [nM]	apparent KD of MS2 coat protein [3] [nM]	apparent KD of MS2 coat protein (input ligand: none) [nM]
ACAUGAGGAUCACCCAUGUCAGGGCACGAUACCAGCUGAUCCGAUGGCCCUUGGCAGCGUGACGUGUGGUCAUGAGGAUCACCCG [kvfmullin]	139	209	182		
AAAUUAUAGGCGGCCGCCACUAGAGUUAGGCUUAUGUACUGGGUAACAUGAGGAUCACCCAUGUAUAGGACCGGGCCAUAAUAAA [Same State - Tryptophan B (Freestyle 3)]	46.9	76.2		63.5	
CUUGUGGUCGGAAGGAGCGCGAUUACAUAACAUGAGGAUCACCCAUGUAAGAAAUUAUUCAUGCAGGUAGGUCGCCGGUCGUGGG [Same State Arginine B GF10]	22	29.6	21.8	22.6	21.4
ACAUGAGGAUCACCCAUGUGUGUAAAUCCUCGAGGACCGGUACGGCCGCCACUCGAACGAGUGUAAGAUGAAUGUUACAUUCAUC [SS Trp A s2]	70.8	134		116	
CGGCCCUCACCUGAGGAACACCCAGGUGAUACCAGCCUGGAAACAGGCCCUUGGCAGCACCAGGUCAUCAAAGAUGACCAAGCCG [TheoAX 24 #SwitchBubble #AlternativeMS2]	20.8	28.7	19.2	171	20.1
UAUUAUAACCGAAGGAGCGGGAAAGAUGAUUUUUAAUAUUAACAUGAGGAUCACCCAUGUACCCAGGUAGGUCGCGGAUAUUAUU [Default title]	23.8	23.4	19	20.7	19.5
AGCACGGUGAUGGUAGCCGGACGCUAGGUACGAGGACCGGUACGGCCGCCACUCGAAGUCCUACGACAUGAGGAUCACCCAUGUA [Same State Trp A GF13]	37.9	59.2		75.2	
GGUUACUCUACGGCCGCCACUGAUUAUUUAUAAUCCUGUACAUAAACAUGAGGAUCACCCAUGUACAGGACCGGGUAGUGUAACC [Tryptophan B 11]	29.9	37.7		33.5	
UCUUGAGUUUCGGAUACCAGUGUUGUCGAUACAUGAGGAUCACCCAUGUUAGAGGAUGUACACCCUUGGCAGCCGGGUGUGGCGG [tftmullin]	12.2	14.7	15.5	12.6	14.5
AAAAUAAAAUAAAAGGUGGAAAUAAGGCGGCGAGGACCGGUACGGCCGCCACUCGCGUACAUGAGGAUCACCCAUGUCUGAAAAU [Same State - Tryptophan A (Freestyle 1)]	20.3	28.2		26.6	
UGUAUGUGAUCUGAUACCAGUCCAACUGGUAAAACCUGAGGAACACCCAGGUAAAAUUGGGACCCUUGGCAGCAGAUCGCAUACU	99.5	147	264	23	246
UCGGGCAUAGCGGCCGCCACUGUUUGGCGUGCGGAUGACGGAACAUGAGGAUCACCCAUGUUGUUUAGGACCGGGCUUGCGUCGU [zyzmullin]	14	17.8		14.5	
CAGAACAUGAGGAUCACCCAUGUAAACGACCGAGGACCGGUACGGCCGCCACUCGAUAUGUCUUGAGGGAGAUAUGGAUUCACAU [theeternabot_sameState_MS2_Trp_A_46]	23	51.4		44.4	
CCUCGGGACCGAAGGAGCGAGAUAACAACAUUGGGUCUCAACACAUGAGGAUCACCCAUGUCUCAGGUAGGUCGCGGUACCAUGG [Exclusion Arginine B GF22]	140	275	182	387	385
UUGACAUGAGGAUCACCCAUGUAAACUGAAGGAGCGUCGAAAAUGACAGGUAGGUCGCAGAAUAAUAAAGGUGAUGGUAAAUAUU [Exclusion Arginine AGF1]	21.4	34.5	29.3	29.6	22.3
AUUGGGUUAUCAGAUACCAGACUAUUCUAGACAUGAGGAUCACCCAUGUAUUGGGUUUUCGUCCCUUGGCAGCUGUUAAGUUUAA [JR_SSTheophyB_Sub005]	117	195	165		
AUAACAUGAGGAUCACCCAUGUUGAGUGAUACCAGACUAUGUAAUGUCCCUUGGCAGCACAAGUAAAGUUAUAAAUAAUGAUAGA [#12 SameState-TheophyllineA]	48.2	55.1	47.2		
GAUGAACUAUUUGAUACCAGACAACAUGAGGAUCACCCAUGUGCGCGUCGUCCUCUGCCUGUCCCUUGGCAGCGGAUAGUUUAUC [XTheo B #12]	32.5	124	34.9		
AAUAGCUUGAGGAUCACCCAAGUAAAAGAUACCAGAGUGAUGAUCCUCCCUUGGCAGCUUAACGCUGAUUGAUUACAAUCAGCGA	46.5	93.9	35.1	106	33.8

Sequence	apparent KD of MS2 coat protein (input ligand: arginine 13.2 mM) [nM]	apparent KD of MS2 coat protein [1] [nM]	apparent KD of MS2 coat protein [2] [nM]	apparent KD of MS2 coat protein [3] [nM]	apparent KD of MS2 coat protein (input ligand: none) [nM]
UGUAAUGGGAUCAACCCAUGAGAGUCUGAAGGAGCGAUCGUAAGAUCAGGUAGGUCGCAGGAGACAUGAGGAUCACCCAUGUAUA [Arg A Ex t2]	33.3	56.6	39.5	51.1	38.7
UAAAACAUGAGGAUCACCCAUGUAAUUGAUACCAGAGUGAUGAUCCUCCCUUGGCAGCAAAACGCUGAUUGGAAACAAUCAGCGA [Mat - Same State Theophlline A - Mod of Eli - D25]	50.1	102	46.8		
AAGGUGAUCCCAGAUACCAGCUUAACAUGAGGAUCACCCAUGUUUGGGACGAAAGUCCCGGGCCCUUGGCAGCUGGGUUGCCAAG [SSTheo B #18]	61.9	402	174		
AGAACUUUGGUGGAUACCAGCUUCUGGCCAUCCUUCAAAUACAUGAGGAUCACCCAUGUUAGCCCUUGGCAGCCAACAUAGACUG [theeternabot_exclusion_MS2_Theo_B_44]	21.7	33	21.6		
AAACCAAGGGAUGGGUGCCUUGGUAGUGAUACCAGCCUGGAAACAGGCCCUUGGCAGCACAUGAGGAUCACCCAUGUGAAAUAAU [TheoAX 18#OpenEnded]	22.9	89.6	46.6	69.2	27.7
ACCUGCGUUUGAUUCUAUCUGACGCAGGUUCGAGGACCGGUACGGCCGCCACUCGGACAUGAGGAUCACCCAUGUUUGACAUGGG [#03 Exclusion Tryptophan A]	27.8	608	92.7	186	121
ACAUGAGGAUCACCCAUGUAACAACGGGAAGGAGCGCCAAACAAGGCAGGUAGGUCGCCCACAUGAGGAUCACCCAUGUGUUGGG [Exclusion Arginine A GF 27]	30.7	40.7	28.8	39.1	30
UGUCCGUGAUCGGCCGCCACUCAACAAACCUGUGGAAACUGACAUGAGGAUCACCCAUGUUCUUGGAGGACCGGGAUUGCUUCGA [theeternabot_sameState_MS2_Trp_B_4]	16.7	19.7		18.5	
AGAUGUAGCGGAAGGAGCGACUUGAGGAUCACCCAAGUCUCCCGUUGUGGGAGUUCCUUAGGUCAGGUAGGUCGCCGUUACGUCA [Omei Arg B SS B v3]	31.6	154	82.8	310	145
UAUCUUGCGGGCGCCCGCAAGGUUGCGGAUACCAGCGAGAUAAAUCGCCCUUGGCAGCCGAACAUGAGGAUCACCCAUGUCGGAC [Same State - Theophylline A Attempt #1 (HarryS)]	7.94	11.8	9.87		
GGAUAGGACAGAAGGAGCGACAUGGCGACGAAAGUCGAAACUUCACAUGAGGAUCACCCAUGUCAGGUAGGUCGCUGUCCUAUCG [ArgXB 7 #MS2Gate #StaticStem]	48.8	63.8	47.1	55.7	48.9
ACAUGAGGAUCACCCAUGUAUUCAUCAGAAGGAGCGUGGAAUAACACAGGUAGGUCGCUGAUUAUUUGUUAAAUAAAAUCGUGUA [JR_Nu_SSArginiA_Sub022]	12.5	20.6	18.3	17.1	17.3
GGGCCCGGGCGCGAGCCCGGGCCCAUUGAUACCAGUGAAUGUGUGCGCCCUUGGCAGCGAAUCCUAACAUGAGGAUCACCCAUGU [5.E]	16.2	117	48.3	50.4	28.6
ACAUGAGGAUCACCCAUGUCAUGAGGUUCACGAGGACCGGUACGGCCGCCACUCGACAUGAGGGUCACCCGUGAAGGGAACACCC [xdmullin]	18.1	29.8	17.9	42.9	22.7
UGACAUUGCUCAGAUACCAGACAUGAGCAUCAGCCAUGUGCCAACAAGUACAAAAUAAAAGUCCCUUGGCAGCUGAGCAAUGUCU [TheoBX 21 #MS2Left #AlternativeMS2 #Theo2]	11.3	11.3	10.6	29.1	9.88
CUGCCAUGCAGAGAUACCAGUGCGCUCAGCACAUGAGGAUCACCCAUGUCGGCUGCCGAUCACCCUUGGCAGCUCUGCAUGGCAG [?@#$_]	12	13	11.3		
GAUUAAACAUGAGGAUCACCCAUGUAUAUACGAGGACCGGUACGGCCGCCACUCGUAAACGAGUAUCCUCGAAUAAACAUGAUAA [AK 2.1 SS Trypt (A)]	44	113		182	
CGGGUUGGACCAGGAAAUGGUCUGACGCGCCGAGGACCGGUACGGCCGCCACUCGCGGGUACAUGAGGAUCACCCAUGUCGGUGG [#1 Same State - Tryptophan A Attempt #12 (HarryS)]	58.2	69.3	93	61.7	50.4
AGCUCGCAUCCUCAAGCGUCAAAGACGCGUCGAGGACCGGUACGGCCGCCACUCGACCUGAGGAACACCCAGGUCCUCGCGAGCA [TrypAX 7 #SwitchBubble #AlternativeMS2 #MS2Late #CuTurnoff]	20.7	40.2	236	34.9	26.1

Source: the supplement of paper PMC9170038
